Laboratory results from US20110076268A1 (CRUCELL HOLLAND B V, published 2011).

Assays:
[1] = biological target: F protein of MARM 19 (RSV A2 escape mutant generated against human Fab 19) (Respiratory Syncytial Virus strain A2) (UniProt P03420); test: cell-based or functional assay
[2] = biological target: F protein of the IgG form of 58C5 MARM (N63K, M115K and E295G) (Respiratory Syncytial Virus strain A2) (UniProt P03420); test: cell-based or functional assay
[3] = biological target: F protein of MARM 151 (RSV A2 escape mutant generated against murine mAb 151) (Respiratory Syncytial Virus strain A2) (UniProt P03420); test: cell-based or functional assay
[4] = biological target: F protein of MARM 1129 (RSV A2 escape mutant generated against murine mAb 1129) (Respiratory Syncytial Virus strain A2) (UniProt P03420); test: cell-based or functional assay
[5] = biological target: F protein of RSV B-1 (ATCC Cat. No. 1400) (Respiratory Syncytial Virus B, strain B-1) (UniProt O36634); test: cell-based or functional assay
[6] = biological target: F protein of the motavizumab MARM (K272E) (Respiratory Syncytial Virus strain A2) (UniProt P03420); test: cell-based or functional assay
[7] = biological target: F protein of RSV B-wash (ATCC Cat. No. VR-1580, strain 18537) (Respiratory Syncytial Virus B, strain 18537) (UniProt P13843); test: cell-based or functional assay
[8] = biological target: T1, RSV strain A2 F protein (recombinant or native, not specified for Table 19) (Respiratory Syncytial Virus strain A2, UniProt P03420 26-524); test: ELISA, IgG titrated on captured RSV F protein; EC50 estimated
T1 construct: also called RSV F Protein

For IgG form of 58c5 (antibody), the Average Plaque Count, 0.003 ug/ml [1] was 143 plaques, the Average Plaque Count, 0.016 ug/ml [1] was 135 plaques and the Average Plaque Count, 0.08 ug/ml [1] was 89.3 plaques. The Average Plaque Count, 0.4 ug/ml [1] was 72 plaques, the Average Plaque Count, 2 ug/ml [1] was 16.7 plaques and the Average Plaque Count, 10 ug/ml [1] was 0.7 plaques. The Plaque reduction rate, 0.003 ug/ml [1] was 8%, the Plaque reduction rate, 0.016 ug/ml [1] was 14% and the Plaque reduction rate, 0.08 ug/ml [1] was 42.7%. The Plaque reduction rate, 0.4 ug/ml [1] was 53.8%, the Plaque reduction rate, 2 ug/ml [1] was 89% and the Plaque reduction rate, 10 ug/ml [1] was 100%. The ED50, neutralization of IgG 58C5 MARM [2] was > 66700 pM, the Plaque reduction rate, IgG 58C5 MARM, 3.2 ng/ml [2] was 0% and the Plaque reduction rate, IgG 58C5 MARM, 16 ng/ml [2] was 0%. For the same molecule, the Plaque reduction rate, IgG 58C5 MARM, 80 ng/ml [2] was 0%, the Plaque reduction rate, IgG 58C5 MARM, 400 ng/ml [2] was 0% and the Plaque reduction rate, IgG 58C5 MARM, 2000 ng/ml [2] was 0%. The Plaque reduction rate, IgG 58C5 MARM, 10000 ng/ml [2] was 3.3%, the Average Plaque Count, 0.003 ug/ml [3] was 151 plaques and the Average Plaque Count, 0.016 ug/ml [3] was 128 plaques. The Average Plaque Count, 0.08 ug/ml [3] was 112 plaques, the Average Plaque Count, 0.4 ug/ml [3] was 64.7 plaques and the Average Plaque Count, 2 ug/ml [3] was 15.3 plaques. The Average Plaque Count, 10 ug/ml [3] was 0 plaques, the Plaque reduction rate, 0.003 ug/ml [3] was 0% and the Plaque reduction rate, 0.016 ug/ml [3] was 15%. For the same molecule, the Plaque reduction rate, 0.08 ug/ml [3] was 26%, the Plaque reduction rate, 0.4 ug/ml [3] was 57% and the Plaque reduction rate, 2 ug/ml [3] was 90%. For the same molecule, the Plaque reduction rate, 10 ug/ml [3] was 100%, the Average Plaque Count, 0.003 ug/ml [4] was 17.7 plaques and the Average Plaque Count, 0.016 ug/ml [4] was 11.7 plaques. The Average Plaque Count, 0.08 ug/ml [4] was 5.7 plaques, the Average Plaque Count, 0.4 ug/ml [4] was 2.3 plaques and the Average Plaque Count, 2 ug/ml [4] was 0 plaques. It also gave an Average Plaque Count, 10 ug/ml [4] of 0 plaques, a Plaque reduction rate, 0.003 ug/ml [4] of 21% and a Plaque reduction rate, 0.016 ug/ml [4] of 47%. It also gave a Plaque reduction rate, 0.08 ug/ml [4] of 74%, a Plaque reduction rate, 0.4 ug/ml [4] of 90% and a Plaque reduction rate, 2 ug/ml [4] of 100%. It also gave a Plaque reduction rate, 10 ug/ml [4] of 100%, an Average Plaque Count, 0.003 ug/ml [5] of 11.7 plaques and an Average Plaque Count, 0.016 ug/ml [5] of 9.3 plaques. For the same molecule, the Average Plaque Count, 0.08 ug/ml [5] was 4 plaques, the Average Plaque Count, 0.4 ug/ml [5] was 0.3 plaques and the Average Plaque Count, 2 ug/ml [5] was 0 plaques. The Average Plaque Count, 10 ug/ml [5] was 0 plaques, the Plaque reduction rate (%), 0.003 ug/ml [5] was 5% and the Plaque reduction rate (%), 0.016 ug/ml [5] was 24%. For the same molecule, the Plaque reduction rate (%), 0.08 ug/ml [5] was 67.5%, the Plaque reduction rate (%), 0.4 ug/ml [5] was 97.6% and the Plaque reduction rate (%), 2 ug/ml [5] was 100%. For the same molecule, the Plaque reduction rate (%), 10 ug/ml [5] was 100%, the ED50, neutralization of Motavizumab MARM [6] was 173 pM and the Plaque reduction rate, Motavizumab MARM, 3.2 ng/ml [6] was 1.5%. The Plaque reduction rate, Motavizumab MARM, 16 ng/ml [6] was 43%, the Plaque reduction rate, Motavizumab MARM, 80 ng/ml [6] was 74.6% and the Plaque reduction rate, Motavizumab MARM, 400 ng/ml [6] was 92%. It also gave a Plaque reduction rate, Motavizumab MARM, 2000 ng/ml [6] of 95.8%, a Plaque reduction rate, Motavizumab MARM, 10000 ng/ml [6] of 97.6% and an Average Plaque Count, 0.003 ug/ml [7] of 20.7 plaques. It also gave an Average Plaque Count, 0.016 ug/ml [7] of 16.3 plaques, an Average Plaque Count, 0.08 ug/ml [7] of 7.7 plaques and an Average Plaque Count, 0.4 ug/ml [7] of 1.3 plaques. For the same molecule, the Average Plaque Count, 2 ug/ml [7] was 0 plaques, the Average Plaque Count, 10 ug/ml [7] was 0 plaques and the Plaque reduction rate (%), 0.003 ug/ml [7] was 21%. It also gave a Plaque reduction rate (%), 0.016 ug/ml [7] of 38%, a Plaque reduction rate (%), 0.08 ug/ml [7] of 71% and a Plaque reduction rate (%), 0.4 ug/ml [7] of 95%. For the same molecule, the Plaque reduction rate (%), 2 ug/ml [7] was 100% and the Plaque reduction rate (%), 10 ug/ml [7] was 100%.

B1: Motavizumab (antibody, V domains shown)
VH: QVTLRESGPALVKPTQTLTLTCTFSGFSLSTAGMSVGWIRQPPGKALEWLADIWWDDKKHYNPSLKDRLTISKDTSKNQVVLKVTNMDPADTATYYCARDMIFNFYFDVWGQGTTVTVSS
VL: DIQMTQSPSTLSASVGDRVTITCSASSRVGYMHWYQQKPGKAPKLLIYDTSKLASGVPSRFSGSGSGTEFTLTISSLQPDDFATYYCFQGSGYPFTFGGGTKVEIK
With B1 the EC50 [8] was ~27 pM.
